Test results as given in article PMC8121815 (Nature Communications, 2021).

What was measured:
[1] = molecular target: T1, unliganded hTOM70 (cytoplasmic segment of human TOM70) (human); test: ITC
T1 sequence (O94826 whole entry, looked up): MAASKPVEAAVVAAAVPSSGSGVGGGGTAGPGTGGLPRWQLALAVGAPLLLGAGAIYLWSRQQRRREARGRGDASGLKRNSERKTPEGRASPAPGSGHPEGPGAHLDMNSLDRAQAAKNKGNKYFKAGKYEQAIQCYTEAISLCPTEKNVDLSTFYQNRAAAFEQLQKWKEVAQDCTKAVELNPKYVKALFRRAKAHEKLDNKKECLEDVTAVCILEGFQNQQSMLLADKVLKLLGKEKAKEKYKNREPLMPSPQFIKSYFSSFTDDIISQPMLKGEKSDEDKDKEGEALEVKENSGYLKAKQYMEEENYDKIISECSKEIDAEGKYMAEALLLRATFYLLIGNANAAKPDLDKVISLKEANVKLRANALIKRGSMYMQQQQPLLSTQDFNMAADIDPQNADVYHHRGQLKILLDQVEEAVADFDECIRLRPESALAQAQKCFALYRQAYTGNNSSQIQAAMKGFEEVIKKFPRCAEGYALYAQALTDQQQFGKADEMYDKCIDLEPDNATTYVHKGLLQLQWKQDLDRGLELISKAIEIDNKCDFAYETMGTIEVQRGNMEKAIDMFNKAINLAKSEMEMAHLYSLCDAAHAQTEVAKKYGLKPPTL

[2] = molecular target: hTOM70/N-peptide complex (Homo sapiens, UniProt O94826); format: binding
[3] = molecular target: T2, SARS-CoV-2 orf9b with an N-terminal His-tag, co-expressed with hTOM70 (SARS-CoV-2, UniProt P0DTD2 1-97); test: SEC + AUC; settings: both partners purified
T2 construct: also called intact orf9b
T2 sequence (P0DTD2 whole entry): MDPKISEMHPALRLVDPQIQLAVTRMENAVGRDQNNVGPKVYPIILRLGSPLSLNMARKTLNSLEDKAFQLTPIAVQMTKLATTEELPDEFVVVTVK

With “C-peptide (SARS-CoV-2 orf9b core sequence 44-70) (from UniProt P0DTD2 44-70)” as the molecule, how does the dH [1] read?
Its dH is 2.65 kcal/mol.

How did the “ΔH, enthalpy variation” value [2] turn out when CC[C@H](C)[C@H](N)C(=O)N[C@H](C(=O)N[C@@H](CC(C)C)C(=O)N[C@@H](CCCNC(=N)N)C(=O)N[C@@H](CC(C)C)C(=O)NCC(=O)N[C@@H](CO)C(=O)N1CCC[C@H]1C(=O)N[C@@H](CC(C)C)C(=O)N[C@@H](CO)C(=O)N[C@@H](CC(C)C)C(=O)N[C@@H](CC(N)=O)C(=O)N[C@@H](CCSC)C(=O)N[C@@H](C)C(=O)N[C@@H](CCCNC(=N)N)C(=O)N[C@@H](CCCCN)C(=O)N[C@H](C(=O)N[C@@H](CC(C)C)C(=O)N[C@@H](CC(N)=O)C(=O)N[C@@H](CO)C(=O)N[C@@H](CC(C)C)C(=O)N[C@@H](CCC(=O)O)C(=O)N[C@@H](CC(=O)O)C(=O)N[C@@H](CCCCN)C(=O)N[C@@H](C)C(=O)N[C@@H](Cc1ccccc1)C(=O)N[C@@H](CCC(N)=O)C(=O)O)[C@@H](C)O)[C@@H](C)CC [C-peptide] was run?
The value was 0.981 ± 0.024 kcal/mol.

What about the “ΔS, entropy variation” value [2] of the same molecule?
Its value is 32.5.

B1: hTOM70 ΔN2 (106-608), co-expressed with orf9b (domain or fragment, human, UniProt O94826 106-608, looked up)
chain: LDMNSLDRAQAAKNKGNKYFKAGKYEQAIQCYTEAISLCPTEKNVDLSTFYQNRAAAFEQLQKWKEVAQDCTKAVELNPKYVKALFRRAKAHEKLDNKKECLEDVTAVCILEGFQNQQSMLLADKVLKLLGKEKAKEKYKNREPLMPSPQFIKSYFSSFTDDIISQPMLKGEKSDEDKDKEGEALEVKENSGYLKAKQYMEEENYDKIISECSKEIDAEGKYMAEALLLRATFYLLIGNANAAKPDLDKVISLKEANVKLRANALIKRGSMYMQQQQPLLSTQDFNMAADIDPQNADVYHHRGQLKILLDQVEEAVADFDECIRLRPESALAQAQKCFALYRQAYTGNNSSQIQAAMKGFEEVIKKFPRCAEGYALYAQALTDQQQFGKADEMYDKCIDLEPDNATTYVHKGLLQLQWKQDLDRGLELISKAIEIDNKCDFAYETMGTIEVQRGNMEKAIDMFNKAINLAKSEMEMAHLYSLCDAAHAQTEVAKKYGLKPPTL
notes: also called TOM70 (106-608); cytosolic domain of hTOM70
How did the “stoichiometry N” value [3] turn out when B1 was run?
The value was 1.
